In paper PMC8533776:

Biological target: enhanced green fluorescent protein (EGFP) [GFP: P42212]
Experiment: ELISA; EGFP coated at 100 ng/well in PBS overnight at 4 °C, blocked with 3% BSA; threefold serial dilutions of the binders, 37 °C for 1.5 h; detection by HRP-conjugated anti-Flag antibody, ABTS, OD405

Substance: αEGFP TRIMbody (RBCC-LaG16-LaG2)
- EC50: 0.63 nM
